Where two headings read alike, the source gives them in different places.
Key:
mouse CLDN6 = target: T1, mouse CLDN6 (mouse, UniProt Q9Z262 1-219); assay: FACS
T1 chain: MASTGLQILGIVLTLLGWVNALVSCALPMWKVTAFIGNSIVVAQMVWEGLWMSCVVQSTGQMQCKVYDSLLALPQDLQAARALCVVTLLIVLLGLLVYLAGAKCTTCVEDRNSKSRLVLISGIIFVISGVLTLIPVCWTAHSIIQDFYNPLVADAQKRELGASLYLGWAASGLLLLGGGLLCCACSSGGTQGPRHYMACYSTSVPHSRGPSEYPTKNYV

[1] = target: T2, monkey CLDN6 (Cyno CLDN6) (monkey (Cyno)); assay: FACS
T2 chain: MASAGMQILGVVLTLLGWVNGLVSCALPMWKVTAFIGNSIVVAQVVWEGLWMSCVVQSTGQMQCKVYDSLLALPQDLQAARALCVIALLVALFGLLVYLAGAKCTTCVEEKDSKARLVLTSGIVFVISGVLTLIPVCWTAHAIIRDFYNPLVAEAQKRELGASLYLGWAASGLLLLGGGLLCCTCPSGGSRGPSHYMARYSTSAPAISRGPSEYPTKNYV

[2] = target: T2, monkey CLDN6 (Cyno CLDN6); assay: FACS
human CLDN6 [3] = target: T3, human CLDN6 (human, UniProt P56747 1-220); assay: FACS; HepG2 cells, FIG. 24
T3 chain: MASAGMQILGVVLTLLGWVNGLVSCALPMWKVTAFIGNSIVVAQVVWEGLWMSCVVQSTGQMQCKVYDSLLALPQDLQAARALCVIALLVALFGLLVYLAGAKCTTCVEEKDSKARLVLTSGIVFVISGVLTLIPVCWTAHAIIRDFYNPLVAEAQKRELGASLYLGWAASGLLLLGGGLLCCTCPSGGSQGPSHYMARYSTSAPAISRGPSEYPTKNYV

human CLDN6 [4] = target: T3, human CLDN6; assay: FACS; HepG2 cells

B1: PiH2006 (antibody, V domains shown)
VH: QVQLVQSGAEVKKPGASVKVSCKASGYTFTDYNMHWVRQAPGQRLEWIGYINPNNGATNYNQKFKGRVTITVDTSASTAYMELSSLRSEDTAVYNCARWDGYVYYYGMDYWGQGTLVTVSS
VL: DIQMTQSPSSLSASVGGRVTITCKASDHINNWLAWYQQKPGKAPKLLISGATSLETGVPSRFSGSGSGTDYTFTISSLQPEDIATYYCQQYWNTPYTFGGGTKLEIKR
What does the source list for B1?
EC50 (mouse CLDN6): 52.3 µg/mL; EC50 [1]: 1.33 µg/mL

B2: PiH1004 (antibody, V domains shown)
VH: QVQLVQSGAEVKKPGASVKVSCKASGYTFTDYNMHWVRQAPGQSLEWIGYVNPNNGATSYNQKFKGRATMTVDKSTSTVYMELSSLRSEDTAVYNCARWDGYVYYYGLDYWGQGTLVTVSS
VL: DIQMTQSPSSLSASVGDRVTITCKASDHINNWLAWYQQKPGKVPKLLISGATSLETGVPSRFSGSGSGTDYTLTISSLQPEDVATYYCQQYWSTPYTFGGGTKLEIKR
B2 was tested. Which EC50 [2] did it give?
Its EC50 is 0.844 µg/mL.

And the EC50 (mouse CLDN6)?
The EC50 was 8.57 µg/mL.

B3: PiH1008 (antibody, V domains shown)
VH: QVQLVQSGAEVKKPGASVKVSCKASGYTFTDYNMHWVRQAPGQSLEWIGYVNPNNGATSYNQKFKGRATMTVDKSTSTVYMELSSLRSEDTAVYNCARWDGYVYYYGLDYWGQGTLVTVSS
VL: DIQMTQSPSSLSASVGGRVTITCKASDHINNWLAWYQQKPGKVPRLLISGATSLETGVPSRFSGSGSGTDYTLTISSLQPEDVATYYCQQYWSTPYTFGGGTKLEIKR
Which results are given for B3?
EC50 [2]: 0.97 µg/mL; EC50 (mouse CLDN6): 6.42 µg/mL

B4: PiH1006 (antibody, V domains shown)
VH: QVQLVQSGAEVKKPGASVKVSCKASGYTFTDYNMHWVRQAPGQGLEWIGYVNPNNGATSYNQKFKGRVTMTVDTSTSTVYMELSSLRSEDTAVYNCARWDGYVYYYGLDYWGQGTLVTVSS
VL: DIQMTQSPSSLSASVGGRVTITCKASDHINNWLAWYQQKPGKVPRLLISGATSLETGVPSRFSGSGSGTDYTLTISSLQPEDVATYYCQQYWSTPYTFGGGTKLEIKR
How did the EC50 [2] turn out when B4 was run?
The EC50 was 1.28 µg/mL.

And the EC50 (mouse CLDN6)?
The EC50 was 18.4 µg/mL.

B5: IMAB027 (antibody, V domains shown)
VH: EVQLQQSGPELVKPGASMKISCKASGYSFTGYTMNWVKQSHGKNLEWIGLINPYNGGTIYNQKFKGKATLTVDKSSSTAYMELLSLTSEDSAVYYCARDYGFVLDYWGQGTTLTVSS
VL: IVLTQSPAIMSASPGEKVTITCSASSSVSYLHWFQQKPGTSPKLWVYSTSNLPSGVPARFGGSGSGTSYSLTISRMEAEDAATYYCQQRSIYPPWTFGGGTKLEIKR
Which results are given for B5?
EC50 [2]: 0.0916 µg/mL; EC50 [1]: 0.0916 µg/mL; EC50 (human CLDN6 [3]): 0.537 µg/mL

B6: RecA101 (antibody, V domains shown)
VH: EVQLQQSGPELVKPGASVKMSCKASGYTFTDYNMHWVKKSHGKSLEWIGYVNPNNGATSYNQKFKGKATLTVNKSSSTAYMELRSLTSEDSAVYNCARWDGYVYYYGLDYWGQGTSVTVSS
VL: DIQMTQSSSYLSVSLGGRVTITCKASDHINNWLAWYQQKPGNAPRLLISGATSLETGVPSRFSGSGSGKDYTLSITSLQTEDVATYYCQQYWNTPYTFGGGTKLEIKR
For B6, which EC50 (human CLDN6 [4]) is on record?
The EC50 was 0.521 µg/mL.

B7: 51C10H4 (antibody, V domains shown)
VH: EVQLQQSGPELVKPGASVKMSCKASGYTFTDYNMHWVKKSHGKSLEWIGYVNPNNGATSYNQKFKGKATLTVNKSSSTAYMELRSLTSEDSAVYNCARWDGYVYYYGLDYWGQGTSVTVSS
VL: DIQMTQSSSYLSVSLGGRVTITCKASDHINNWLAWYQQKPGNAPRLLISGATSLETGVPSRFSGSGSGKDYTLSITSLQTEDVATYYCQQYWSTPYTFGGGTKLEIKR
What does the source list for B7?
EC50 [2]: 0.636 µg/mL; EC50 (mouse CLDN6): 0.608 µg/mL

B8: 54B5A7 (antibody, V domains shown)
VH: EVQLQQSGPELVKPGASVKMSCKASGYTFTDYNMHWVKKSHGKSLEWIGYINPNNGATNYNQKFKGKATLTVNKSSSTAYMELRSLTSEDSAVYNCARWDGYVYYYGMDYWGQGTSVTVSS
VL: DIQMTQSSSYLSVSLGGRVTITCKASDHINNWLAWYQQKPGNAPRLLISGATSLETGVPSRFSGSGSGKDYTLSITSLQTEDVATYYCQQYWNTPYTFGGGTKLEIKR
For B8, which EC50 (mouse CLDN6) is on record?
The EC50 was 0.844 µg/mL.

Source: US20260139049A1 (published 2026)
